Columns and labels:
Test in all cases: cell-based or functional assay
[1] = biological target: T1, MSLN (Mesothelin) on HCT116 or GSU cells (UniProt Q13421 37-598, limits assumed)
[2] = biological target: T2, CDH3 (Cadherin-3, P-Cadherin) on HCT116 or GSU cells (UniProt P22223 108-829, limits assumed)
[3] = biological target: T1, MSLN (Mesothelin) on HCT116 or GSU cells; remark: listed apart in the source
[4] = biological target: T2, CDH3 (Cadherin-3, P-Cadherin) on HCT116 …; remark: listed apart in the source

B1: MSLN-CDH3 T-cell engager molecule 1 (scFc single chain) (bispecific antibody)
chain: QVQLVQSGAEVKKPGASVKVSCKASGYTFTNYWMNWVRQAPGQCLEWMGNIAYGVAGTNYNQKFQGRVTMTVDTSSSTAYMELSRLRSDDTAVYYCATRYFYVMDYWGQGTLVTVSSGGGGQGGGGQGGGGQEIQMTQSPSSLSASVGDRVTITCRASQDISNYLNWYQQKPGKVPKLLIYYTSRLHSGVPSRFSGSGSGTDFTLTISSLQPEDVATYYCVQYAQFPLTFGCGTKVEIKSGGGGQEVQLVESGGGLVQPGGSLKLSCAASGFTFNKYAMNWVRQAPGKGMEWVARIRSKYNNYATYYADAVKDRFTISRDDSKNTLYLQMNNLKTEDTAVYYCVRAGNFGSSYISYFAYWGQGTLVTVSSGGGGQGGGGQGGGGQQTVVTQEPSLTVSPGGTVTITCGSSTGAVTSGNYPNWIQKKPGQAPRGLIGGTKFLAPGTPARFSGSLEGGKAALTLSGVQPEDEAEYYCVLYYSNRWVFGSGTKLTVLGGGGCPPCPAPELLGGPSVFLFPPKPKDTLMISRTPEVTCVVVDVSHEEPEVKFNWYVDGVEVHNAKTKPCEEQYGSTYRCVSVLTVLHQDWLNGKEYKCKVSNKALPAPIEKTISKAKGQPREPQVYTLPPSREEMTKNQVSLTCLVKGFYPSDIAVEWESNGQPENNYKTTPPVLDSDGSFFLYSKLTVDKSRWQQGNVFSCSVMHEALHNHYTQKSLSLSPGKGGGGQGGGGQGGGGQGGGGQGGGGQGGGGQCPPCPAPELLGGPSVFLFPPKPKDTLMISRTPEVTCVVVDVSHEEPEVKFNWYVDGVEVHNAKTKPCEEQYGSTYRCVSVLTVLHQDWLNGKEYKCKVSNKALPAPIEKTISKAKGQPREPQVYTLPPSREEMTKNQVSLTCLVKGFYPSDIAVEWESNGQPENNYKTTPPVLDSDGSFFLYSKLTVDKSRWQQGNVFSCSVMHEALHNHYTQKSLSLSPGKGGGGQVQLQESGPGLVKPSETLSLTCTVSGGSISSSSYFWGWIRQPPGKCLEWIGNIYYSGSSNYNPSLKSRVTISVDTSKNQFSLKLSSVTAADTAVYYCARLPRGDRDAFDIWGQGTMVTVSSGGGGQGGGGQGGGGQEIVMTQSPSSLSASVGDRVTITCRASQGISNYLAWYQQKPGKVPKLLIYAASTLQSGVPSRFSGSGSGTDFTLTISSLQPEDFATYYCQQSYSTPFTFGCGTKVEIKSGGGGQEVQLVESGGGLVQPGGSLKLSCAASGFTFNKYAMNWVRQAPGKGMEWVARIRSKYNNYATYYADAVKDRFTISRDDSKNTLYLQMNNLKTEDTAVYYCVRAGNFGSSYISYFAYWGQGTLVTVSSGGGGQGGGGQGGGGQQTVVTQEPSLTVSPGGTVTITCGSSTGAVTSGNYPNWIQKKPGQAPRGLIGGTKFLAPGTPARFSGSLEGGKAALTLSGVQPEDEAEYYCVLYYSNRWVFGSGTKLTVL
EC50 HCT116 KO CDH3 [pM]; TDCC, CDH3 knocked out, MSLN left [1]: 1.76 pM
EC50 HCT116 WT [pM]; TDCC, cells double positive for CDH3 and MSLN [1]: 0.003 pM
EC50 HCT116 KO MSLN [pM]; TDCC, MSLN knocked out, CDH3 left [2]: 1.08 pM
EC50 HCT116 WT [pM]; TDCC, cells double positive for CDH3 and MSLN [2]: 0.003 pM
EC50 GSU KO CDH3 [pM]; TDCC, CDH3 knocked out, MSLN left [3]: 0.47 pM
EC50 GSU WT [pM]; TDCC, cells double positive for CDH3 and MSLN [3]: 0.013 pM
EC50 GSU KO MSLN [pM]; TDCC, MSLN knocked out, CDH3 left [4]: 103 pM
EC50 GSU WT [pM]; TDCC, cells double positive for CDH3 and MSLN [4]: 0.013 pM

From US20260167720A1 (Amgen, published 2026)
